Measured values: US20240026407A1, “MODIFICATION OF SAPONINS” (GLAXOSMITHKLINE BIOLOGICALS SA, priority 2020, published 2024)

Key:
Type in all cases: biochemical, Quillaja saponaria
[1] = Experiment 5-1: screening of additional glucosidases for deglycosylation with purified QS-18 (0.04 mg/ml) at pH 7.5 and 30 deg C; conditions: pH 7.5, 30 degrees C, 18 hours, LCMS/MS
Protocol: The 94 additional genes, together with positive control (DNA encoding SEQ ID No. 262) and negative control, were transformed, expressed, lysed and reacted in the same manner as described above for Experiment 4-1, except the reaction was incubated at 30 degrees C. for 18 hours.
Samples were analysed by LCMS/MS according to the procedure in Experiment 4-1.

[2] = Experiment 5-2: screening of additional glucosidases for deglycosylation with QS-18 in crude bark extract (80%) at pH 6 and 35 deg C; conditions: CBE 80%, pH 6, 35 deg C, 18 hours; UV HPLC
Summary of the method: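 Clarified glucosidase lysate (prepared at pH 6) was incubated with pH 6-adjusted crude bark extract at 35 deg C with shaking for 18 hours. Reactions were quenched with MeCN containing 2% AcOH and hexanophenone, then analysed by UV HPLC.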

[3] = Experiment 5-3: screening of additional glucosidases for deglycosylation with QS-18 in treated bark extract (80%) at pH 6 and 35 deg C; conditions: TBE 80% (QS-21 approx. 4 g/L), pH 6, 35 deg C; UV HPLC
Protocol: Experiment 5-1 was repeated, replacing CBE with Treated Bark Extract (TBE) at pH 6. TBE was prepared from CBE by PVPP treatment and concentration, to provide TBE with a QS-21 concentration of approximately 4 g/L. TBE was adjusted to pH 6 by dropwise addition of 2M NaOH with stirring.

Molecule	Experiment 5-1 % conv [1] [%]	Experiment 5-2 % conv [2] [%]	Experiment 5-3 % conv [3] [%]
805 (protein, uncultured Clostridium sp.) MLDIEKLIDEMTLEEKAGLCSGDDMWHTKAVERLGIPRIKMSDGPHGMRTFDDNGKVIPAVCFPTGSALAASFDTELVERVGAAIGEAAKTNGVHTVLGPAVNMKRSPLCGRNFEYLSEDPYLAGKLGSAMVRGIQSKGVGACPKHFAVNNQETRRMSVSADLSERTLREVYLPAFETIVKESSPHTMMCAYNRINGTYASENEHLLDEILRKEWGYQGIVMTDWSAMNRRPRALQAGLELEMPSSAGVNDEKIVEAVKAGDLSIEVLDEAVRRLLTWINAELQGRTESVCDLGVQRELAREAAGKSAVLLKNDDVLPLRKGDKIAFIGGFADKPRFEGGGSSHVSVEHMVNAIDAAKDIPNITYTEGFNTDDALSDYELVAEAVRIASEADVAVIFAGLPAAFESEGHDRTTLEIPESQNKLIAAISAVQPKTVVVFHGGSPVYMPWRKDVAAILYMYLGGQEVGSASVDLLFGDRNPSGKLAETFPLKLEDTPCYMNFPGDGNNAEYSEGIYIGYRWYDKRKIAVEYPFGFGMSYSDFIYRQIRSANSRITDTDTLKIYVDVQNRGEYAGEEIVQLYVQPSKARQGVRPVKELKGFKKMMIAPGETKTVCFELDKRSFAEYKPEISGWYAATGEYTILAGGSSDNLPLQVKVYVESTDTIPLVYNDYTTIGDLWDSGLDVNEVLDALDAKQTDLSALGLPADKMDRAIHMEEVKRGMPIHAVISMGGRDMNKIYQALLKVDGLEGKENIPL	3.8	<0.5	<0.5
864 (protein, listed as Stagonospora sp.) MPYKVNDESREGEGLNALLGALTLDEKISLLSAKNIWETPEVERVGIPSLKVTDGPNGARGGEFFDGTTAACFPACVSLAATFDRALSRQVGRALGQEAITKGAYVVLGPTVCCHRSPLGGRNFEAFSEDPVLSGALASEYVKGLQEERVAATVKHFLANEQDTRRFSVDQTISERALREIYLKPFEIVAKQADPWCFMSSYPKINGKHVDAQSKFLIDILRKEWGYEGMVMSDWGAASTVEGIKYGLDMEMPGPPRQREANLVRNAVKKGQISEGDIDARVLSTLNLLKKVGKFSDRKDTPKEQAIDRPEHRALIRKAGREGIVLLKNQNNILPIDIKKTQKVALLGPLAKYAAAHGGGSASLNCHYKITPYDAFTERLGKDVEITHSKGAHIFRVYPDLDAGCKNAHGNVGFLAEYFMEGDIEPSSVPFRIEEFPRGSFNTLMNTNVTGCKSVRFTTTYRPPVTGKHYLSFSGLGPSHLSINGVMVAEQKNSTKDAMSFFLGVQEEERVQFDFDAAKTYDLIMETHPSPTNNAELYLMEGQTSIHLGFIAQAEMEQDVLAEAVDLAKDADLAIVFVGNTTQWETEGQDLSSMTLPADGSQDNLIASVVAANPKTIVVNTTGVPVELPWLDDVPAFLQAWYAGQETGNAILDVLLGEMSPSGKLPISWPKKYEHTGCYGNFGLDSFDSRKVEYVEGVFVGYRWFDRQWGHDKEVRFPFGYGLSYTEFSITDTRISGSIANDKNARVTVAANVKNVGSMSGSEILQVYLEPPVEEGIDRPVKGLVGFVKVELQPKEEKTVEVVFARDAAAFWDEAANEWAVSMGLHHIVVATSAAPVDIKARLELHVENAFKFDP	3.9	<0.5	<0.5
809 (protein, listed as Rhodococcus erythropolis) MELTAATGRNDVTENYVDGLSLEEKASLTSGSDFWHSQSVAGIESILLTDGPHGVRKQPEGGDALGLGHSIPATCFPPAVGLGSSWNLDLIRQVGEALGDEAKAEQVSVLLGPGINIKRSPLCGRNFEYVSEDPFLSGRVAAALITGIQSRGVGTSLKHFAANNQEHDRMRVSADVDERTLREIYLAGFEYAVKTAAPTTVMCSYNKINGVYSSQNHWLLTEVLREQWGFDGLVVSDWGAVNDRVAALAAGLDLEMPPTGTDTQIVDAVRGGDLDESVLTTAAERLSTLVKRTAAARTEGHTYDVERHHELARTAAAESAVLLANDGELLPLTPGGQTVAVIGEFACSPRYQGAGSSQVVPTKLDNALDAILDLEGADRVTFAPGFTFDGTPDDHMVTEAVDAARRADVAVLFLGLPSATESEGFDRTDIELPADQIALLEAVHGANPNTVVVLANGGVVSIEPWKDHAAAILEGWLLGQAGGSAIADLLFGITNPSGRLTETIPLRLQDNPSYLHFPGSQQHVRYGEGLYVGYRYYDSALREVAYPFGFGLSYTTFDITDTSVDAGKNSAEVTVTVRNSGDRSGSTVVQVYVHDASASIDRPAQELKGFAKVHLDPDESATVTITLDTRAFAYWSVAAQDWAIEPGDYEIRVGFSSRDIATTDTITLAGNVGVGTLDAMSTIGEWLAHPVGSAVLGAAMAAAAGDGAQAVSPEMMALAGSMPLGKLATFGLGITEEQVAQLVAAAAQPGS	6.3	<0.5	<0.5
848 (protein, uncultured microorganism) MTLEEKVSMVAGADAWHSTGVERLGIPAIKVTDGPNGARGGDFGGGVGSACFPVGVCLGSTWNTALIERVGQALGQEVQSKQAHILLAPTVNIHRSPLNGRNFECYSEDPYLTARIAAAYITGVQKQGVGACIKHFVCNDSEFERHSISSEVGERALREIYLPPSETAVREAGVWAVMSAYNKLNGTYCSENPYTLLEILKGEWGFEGIVISDWGGTYSTVEAAANGLDLEMPGPARWMGEKLLQAMRDGQVSGPKKLGEAVDDKVRRLLWTIEKAGAQLGPEPPEQAIDRPEHRALIRQAAGEGIVLLKNDGVLPLDGARVKRIAVIGPNAAEAKIMGGGSAQVKAHYAVSPLDGIRARAGEAVDVQCALGCTNYREIPELKTEWLTPVGGGESGWTVAYYNNLDLAGDPVRAETTDRTRMMWFGQVAPGVDRECFSARLSGTLTVPQSGTYTLSLNSAGVSRIAIDGELVLDNWTDYRPSRGPFDRDRKVPTAEVELTAGQGYTFVVEYSKQQSPRFAMLRVGCLPAQPADLMERAVQAAAKADVALVFIGTSGEWESEGFDRPDMELPGRQVELLEAVAAANPNTVAVLNTGSPVSVRWLDKVAALVEAWFPGQECGNAIADVLFGDVNPSGRLSQTWPVRLQDNPAYINYPGENGRVLYGEGLFVGYRYYEKKQIEPRFPFGHGLSYTTFEYGALRLQSEYTLGEPIAVSVDVTNTGPVAGQEVVQLYVRDEESSLVRPEKELKAFAKLALEPGETQTVTLTLDERALSFYDDAKAGWVAEAGEFTVLVGASSRDIRCTARFTLTVPPDRS	3.8	<0.5	<0.5
862 (protein, listed as Bifidobacterium thermacidophilum) MDATTGTNKAPAPAQARQGNGRGGNEGRNASEIRHRVDDLTLEQKASLTSGADAWHVQGIDECGIPGYMITDGPHGLRKARPAEEQKTGLGDAVPVTCFPPAAGLSSSWDPGLVREVGEAMGEECIQEKVAVILGPAVNIKRNPLGGRCFEYWSEDPFLAGHEAVGIVEGVQSKGVGTSLKHFAANNQETDRLRISATISPRALREIYLPAFEYIVKTAQPWTVMCSYNRINGVHSAQNRWLLTDVLRREWGFQGIVMSDWGADHDRVASLNAGLNLEMPPSGTDDQIVAAVRDGRIAPEQLDSMAQGMIDLVAKAQPAMSRDGYRYDRDRHYDIARRAARESMVLLKNEQGTLPVRPGVRVAVIGEFARTARYQGGGSSHITPDRMSSFLDATARRGEQVDFAPGFTLDLDPADPVLEAQAIETARHADIVLMFMGLPEAAESEGFDRTSLDIPAKQTSLLHKISAVNPHVAVILSNGSVVSVAPWCDDAQAILESWLLGEAGGDALADVVFGDVSPSGKLAQTIPLDINDDPTMLNWPGEEGHVDYGEGVFVGYRYYDTYRKPVAYPFGFGLSYATFDVHDARVRRLGVDDAARVAAERAAGDAAQGNDVARADGAAHVDGACGAVVRVDATVTNTSDAPGAQVVEIYVAPGKSQVARPVHELKGFARVDLAPGESKAVSITLDERAFAYWSQRFDDWHVEAGDYTVEVGTSSRDIVARIPAHLDGDGKTMPLDEWSTFGEWAADPVGARVVEAVGREADQGRLPRLPQNGVMRIFLMAAPVNSLQMILGEEGLEVARFMLDEYRRIRG	4.2	<0.5	<0.5
875 (protein, listed as Exophiala spinifera) MGSYSGSQQGFESIISGLTVEEKATLLSGADFWTTSPVTRVGIPALKVSDGPNGARGGHFQGKTTSACFPASVSLAASFDREFAYKIGRALGQETKTKGAHVLLGPTVCHHRDPRGGRNFESFSEDPLLAGELASEWIAGLQSEGVGATVKHYAVNEQETRRFTIDARVDQRALREIYLKPFEIAVKRADPWAIMTSYNLVNGKHADEHKELITDILRGQWGFKGLVMSDWGGTNSVAPSLNAGHDLEMPGPPLKRTVDNIQRALQTGELTEDTLNQRVGNVLKLLQRAGKFENPEIAEEQAVDLPEHRSLIRQAAAESMVLLKNTNNILPLKSTNTKSIALLGLAREYLGHGGGSASVNSHHKVTAYEALQAAVGSSVQLNYAEGARIVRNLSPLSENVYNEEGVPGFTMKTFSKLNGDNPTVSTVPSSVYRTLEPSSIDQMTLLGTFKPKTSGLHYISLSTLGGTRVYINDELVFDYSNSQTTDIMAFLIGSPGEDKKRYLFTAGESYRIRIEAKATKDTISGFSLFTKEAIGFSLGFALESEHDADLLTAAIEAAKSSDVAVVFVGHTPIWESEGADRSGMDLPKDGSLDALVVAAAKVNPNTVVVNSTGSAISMPWIEDVAAVVQAWFPGQEAGHSIADVLLGKVTPSGKLPVTFPRAITDVPSYENFPGDIKNEVVHYKESIYTGYRHFDRRPEGVLFPFGFGLSYTTFDVVVTSVSRTKLRNHETLTVSADVTNTGTTEGAEVVQVYVGAGEGTSAIDRPAKELAGFAKVHLRPGEARKVAITFGRDSVAYWNESRDKWSVDKGAYTIYVGTSSVDIAGKLEVEVPEAFDFDP	4.7	<0.5	<0.5
